Data on 2 proteins can be found in paper doi:10.1101/2024.10.02.616235, “Mechanism of DNA entrapment by the MukBEF SMC complex and its inhibition by a viral DNA mimic” (bioRxiv, 2024).

Data set [1] concerns the molecule itself. The data set can be described thus: cryo-EM structure; E. coli MukEF 1 μM mixed with 4 μM gp5.9 in 20 mM Tris, 200 mM NaCl, 0.5 mM TCEP, 0.05 % β-octyl glucoside, pH 7.4, on ice.
Data set [2] concerns the molecule itself. Put plainly: cryo-EM structure; wild-type P. thracensis MukBEF dimers 150 nM with nicked plasmid pFB526 and 5 mM ATP, 10 mM MgCl2, pH 7.0, optionally with Na3VO4 or BeSO4/NaF; datasets pooled.

B1: T7 gp5.9, purified from insect cells (natural protein, bacteriophage T7)
chain: MSRDLVTIPRDVWNDIQGYIDSLERENDSLKNQLMEADEYVAELEEKLNGTS
notes: bacteriophage T7 gp5.9; histidine tag removed with 3C protease; Used as 'gp5.9 dimers' in SEC; source: Hi5 insect cells, purified (Talon, 3C cleavage, HisTrap, MonoQ)
B1: the stoichiometry N – broadly, the number of molecules, sites or subunits per partner or assembly – in data set [1] came to 2.

B2: P. thracensis MukE as subunit of wild-type MukBEF (natural protein, Photorhabdus thracensis)
chain: MSSTHIEQFMPVKLAQALANSLFPELDSQLRAGRHIGIDDLDNHAFLMDFQEQLEEFYARYNVELIRAPEGFFYLRPRSTTLIPRSVLSELDMMVGKILCYLYLSPERLANQGIFTSQELYEELISLADEGKLMKFVNQRSSGSDLDKQKLQEKVRTTLNRLRRLGMVYFLPNNNNKFTITEAVFRFGADVRSGDDPREIQLRMIRDGEAMPVEGSLSLDDSENDETPDNSAEGAGDEQP
notes: Photorhabdus thracensis MukE; the MukE chain of m14; source: E. coli BL21-Gold(DE3), co-expressed as MukBEF from pFB403, purified
Take B2: the “stoichiometry N” value in data set [2] stood at 2.
